Patent publication US20260062495A1 (TG THERAPEUTICS, published 2026)

Assays:
[1] = biological target: T1, C1q (complement component 1q) (UniProt P02745 23-245; P02746 28-253; P02747 29-245); assay: C1q ELISA, 4-parameter logistic fit; % potency relative to reference standard; TG-1101 from 10 L culture at post-shift pH 6.70 +/- 0.10
Experimental: (§1) The binding of anti-CD20 antibody to C1q is evaluated using a C1q ELISA-based method. The dose-response binding is modeled by weighted nonlinear regression using a 4-parameter logistic fit, and the results are reported as % potency relative to the reference standard.
(§2) Purified antibody (TG-1101) from each of the 10 L bioreactor cultures was also tested in various binding assays (CD20 antigen, Fc gamma receptor, complement component 1q), as well as Fc effector activity assays (ADCC, CDC).

[2] = biological target: T1, C1q (complement component 1q); assay: C1q ELISA, 4-parameter logistic fit; % potency relative to reference standard; TG-1101 from 10 L culture at post-shift pH 6.80 +/- 0.03
Experimental: as §1, §2

[3] = biological target: T1, C1q (complement component 1q); assay: C1q ELISA, 4-parameter logistic fit; % potency relative to reference standard; TG-1101 from 10 L culture at post-shift pH 6.85 +/- 0.05
Experimental: as §1, §2

[4] = biological target: T1, C1q (complement component 1q); assay: C1q ELISA, 4-parameter logistic fit; % potency relative to reference standard; TG-1101 from 10 L culture at post-shift pH 6.95 +/- 0.05
Experimental: as §1, §2

[5] = biological target: T2, FcγRIIIa-158V (Fc gamma receptor 3a, higher affinity allele) (UniProt P08637 17-208); assay: SPR, Fc receptor immobilised on chip, antibody injected; 1:1 Langmuir fit; % potency relative to reference standard; TG-1101 from 10 L culture at post-shift pH 6.70 +/- 0.10
T2 construct: Immobilised directly on the SPR chip; also called Fc receptor
Experimental: (§3) The binding of anti-CD20 antibody samples to FcγRIIIa is evaluated by surface plasmon resonance (SPR). The method follows a direct binding assay methodology where the Fc receptor (ligand) is directly immobilized onto the appropriate flow cell on a sensor chip surface and the analyte is injected over the chip to assess binding. The high affinity allele of FcγRIIIa (158V) is determined.
(§4) The equilibrium dissociation constants (KD) and the relative affinities of each sample relative to the reference standard is determined for each receptor. The rates of change of the SPR signal is analyzed using a 1:1 Langmuir model to yield apparent rate constants for the association and dissociation phases of the reaction, and equilibrium dissociation constants. Results are reported as % potency relative to the reference standard for the FcγRIIIa-158V variant.
as §2

[6] = biological target: T2, FcγRIIIa-158V (Fc gamma receptor 3a, …); assay: SPR, Fc receptor immobilised on chip, antibody injected; 1:1 Langmuir fit; % potency relative to reference standard; TG-1101 from 10 L culture at post-shift pH 6.80 +/- 0.03
Experimental: as §3, §4, §2

[7] = biological target: T2, FcγRIIIa-158V (Fc gamma receptor 3a, …); assay: SPR, Fc receptor immobilised on chip, antibody injected; 1:1 Langmuir fit; % potency relative to reference standard; TG-1101 from 10 L culture at post-shift pH 6.85 +/- 0.05
Experimental: as §3, §4, §2

[8] = biological target: T2, FcγRIIIa-158V (Fc gamma receptor 3a, …); assay: SPR, Fc receptor immobilised on chip, antibody injected; 1:1 Langmuir fit; % potency relative to reference standard; TG-1101 from 10 L culture at post-shift pH 6.95 +/- 0.05
Experimental: as §3, §4, §2

[9] = biological target: T3, CD20 on the CD20 expressing human mantle cell lymphoma cell line Jeko-1 (human, UniProt P11836 1-297); assay: Cell-based binding to Jeko-1 cells, Meso Scale Discovery electrochemiluminescence, 4PL; % potency relative to reference standard; TG-1101 from 10 L culture at post-shift pH 6.70 +/- 0.10
T3 construct: whole, on cells; The target is presented on Jeko-1 cells; also called CD20 antigen
T3 sequence (looked up): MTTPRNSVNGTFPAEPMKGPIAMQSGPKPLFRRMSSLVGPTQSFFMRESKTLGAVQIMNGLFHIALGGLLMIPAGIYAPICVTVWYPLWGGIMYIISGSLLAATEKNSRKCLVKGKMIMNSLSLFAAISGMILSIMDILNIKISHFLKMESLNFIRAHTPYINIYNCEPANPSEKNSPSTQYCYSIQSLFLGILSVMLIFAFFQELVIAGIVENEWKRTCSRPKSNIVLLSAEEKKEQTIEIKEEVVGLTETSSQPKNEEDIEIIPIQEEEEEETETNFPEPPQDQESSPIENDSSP
Experimental: (§5) In the CD20 binding activity assay, the binding of anti-CD20 antibody to the CD20 expressing human mantle cell lymphoma cell line, Jeko-1, is evaluated using the Meso Scale Discovery (MSD) method. Dose response curves are modeled using 4PL equation, and results are reported as % potency relative to the reference standard.
as §2

[10] = biological target: T3, CD20 on the CD20 expressing human …; assay: Cell-based binding to Jeko-1 cells, Meso Scale Discovery electrochemiluminescence, 4PL; % potency relative to reference standard; TG-1101 from 10 L culture at post-shift pH 6.80 +/- 0.03
Experimental: as §5, §2

[11] = biological target: T3, CD20 on the CD20 expressing human …; assay: Cell-based binding to Jeko-1 cells, Meso Scale Discovery electrochemiluminescence, 4PL; % potency relative to reference standard; TG-1101 from 10 L culture at post-shift pH 6.85 +/- 0.05
Experimental: as §5, §2

[12] = biological target: T3, CD20 on the CD20 expressing human …; assay: Cell-based binding to Jeko-1 cells, Meso Scale Discovery electrochemiluminescence, 4PL; % potency relative to reference standard; TG-1101 from 10 L culture at post-shift pH 6.95 +/- 0.05
Experimental: as §5, §2

T2 sequence (P08637 17-208 F176V): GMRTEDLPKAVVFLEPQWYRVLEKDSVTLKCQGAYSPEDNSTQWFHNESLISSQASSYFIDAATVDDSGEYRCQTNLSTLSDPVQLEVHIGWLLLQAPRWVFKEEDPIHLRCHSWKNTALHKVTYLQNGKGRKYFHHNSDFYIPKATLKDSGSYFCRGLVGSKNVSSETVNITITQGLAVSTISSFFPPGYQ
T1 sequence (P02745 23-245, chain 1 of 3): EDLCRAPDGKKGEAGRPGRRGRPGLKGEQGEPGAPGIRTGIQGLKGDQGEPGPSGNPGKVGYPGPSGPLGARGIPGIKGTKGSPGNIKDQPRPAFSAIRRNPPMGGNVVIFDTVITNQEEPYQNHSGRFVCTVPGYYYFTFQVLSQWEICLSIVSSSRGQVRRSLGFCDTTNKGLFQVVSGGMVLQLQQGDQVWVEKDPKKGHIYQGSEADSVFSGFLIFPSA
T1 sequence (P02746 28-253, chain 2 of 3): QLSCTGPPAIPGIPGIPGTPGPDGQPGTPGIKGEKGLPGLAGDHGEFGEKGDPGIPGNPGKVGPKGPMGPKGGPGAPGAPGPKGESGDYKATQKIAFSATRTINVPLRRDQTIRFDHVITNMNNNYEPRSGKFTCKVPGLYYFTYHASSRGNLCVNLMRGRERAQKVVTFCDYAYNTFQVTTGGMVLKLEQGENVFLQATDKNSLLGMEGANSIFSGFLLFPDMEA
T1 sequence (P02747 29-245, chain 3 of 3): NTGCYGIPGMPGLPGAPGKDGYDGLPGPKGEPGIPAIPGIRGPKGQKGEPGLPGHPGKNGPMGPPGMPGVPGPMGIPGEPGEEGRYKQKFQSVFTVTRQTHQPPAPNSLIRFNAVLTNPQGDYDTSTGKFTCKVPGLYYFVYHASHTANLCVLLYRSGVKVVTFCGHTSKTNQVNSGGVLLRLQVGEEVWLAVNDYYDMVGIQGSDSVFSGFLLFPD

C1q binding (%) relative to the reference standard [1]: 86.6%
C1q binding (%) relative to the reference standard [2]: 84.5%
C1q binding (%) relative to the reference standard [3]: 81.2%
C1q binding (%) relative to the reference standard [4]: 76.5%
FcγRIIIa-158V binding (%) relative to the reference standard [5]: 120%
FcγRIIIa-158V binding (%) relative to the reference standard [6]: 98.2%
FcγRIIIa-158V binding (%) relative to the reference standard [7]: 108%
FcγRIIIa-158V binding (%) relative to the reference standard [8]: 109%
CD20 binding (%) relative to the reference standard [9]: 116%
CD20 binding (%) relative to the reference standard [10]: 96.8%
CD20 binding (%) relative to the reference standard [11]: 89.5%
CD20 binding (%) relative to the reference standard [12]: 110%
B1: TG-1101 (anti-CD20 IgG1 monoclonal antibody expressed in YB2/0 rat hybridoma cells) (antibody)
heavy: not shown
light: QIVLSQSPAILSASPGEKVTMTCRASSSVSYMHWYQQKPGSSPKPWIYATSNLASGVPARFSGSGSGTSYSFTISRVEAEDAATYYCQQWTFNPPTFGGGTRLEIKRTVAAPSVFIFPPSDEQLKSGTASVVCLLNNFYPREAKVQWKVDNALQSGNSQESVTEQDSKDSTYSLSSTLTLSKADYEKHKVYACEVTHQGLSSPVTKSFNRGEC
modifications: N-linked glycans with low fucosylation (18.4-27.5 % fucosylation in the 10 L cultures of Table 7)
notes: also called ublituximab; UBX
